Test results as given in patent US20160022764A1 (RHYTHM PHARMACEUTICALS, published 2016).
Bridge positions count the residues as written; N and C are the ends. Square brackets hold non-standard residues; d marks the D form. Ends that are not written are not given here. dPhe(4-F) = N[C@H](Cc1ccc(F)cc1)C(=O)O; dTle = CC(C)(C)[C@@H](N)C(=O)O; Pen = CC(C)(S)[C@H](N)C(=O)O; hCys = N[C@@H](CCS)C(=O)O

How the values were obtained:
Test in all cases: cell-based or functional assay
melanocortin-5 receptor = melanocortin-5 receptor (human, UniProt P33032 1-325)
Sequence of melanocortin-5 receptor (P33032 whole entry): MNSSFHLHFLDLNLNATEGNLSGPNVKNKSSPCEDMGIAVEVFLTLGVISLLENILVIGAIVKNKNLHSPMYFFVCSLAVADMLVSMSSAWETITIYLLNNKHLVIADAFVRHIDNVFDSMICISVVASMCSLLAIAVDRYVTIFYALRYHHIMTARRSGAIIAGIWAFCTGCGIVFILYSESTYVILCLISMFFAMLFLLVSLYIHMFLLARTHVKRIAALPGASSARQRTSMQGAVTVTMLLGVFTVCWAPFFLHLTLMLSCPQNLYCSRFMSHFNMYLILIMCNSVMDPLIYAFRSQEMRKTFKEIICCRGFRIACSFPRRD

melanocortin-1 receptor = melanocortin-1 receptor (human, UniProt Q01726 1-317)
Sequence of melanocortin-1 receptor (Q01726 whole entry): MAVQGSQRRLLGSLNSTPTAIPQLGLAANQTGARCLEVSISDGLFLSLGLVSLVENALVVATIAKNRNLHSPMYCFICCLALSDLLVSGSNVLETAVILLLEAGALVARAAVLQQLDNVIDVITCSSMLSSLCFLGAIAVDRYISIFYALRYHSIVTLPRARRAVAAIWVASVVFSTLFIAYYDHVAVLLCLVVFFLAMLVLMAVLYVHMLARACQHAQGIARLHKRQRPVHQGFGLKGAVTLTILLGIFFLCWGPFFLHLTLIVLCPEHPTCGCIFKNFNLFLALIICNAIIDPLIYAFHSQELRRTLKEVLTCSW

melanocortin-3 receptor = melanocortin-3 receptor (human, UniProt P41968 1-323)
Sequence of melanocortin-3 receptor (P41968 whole entry): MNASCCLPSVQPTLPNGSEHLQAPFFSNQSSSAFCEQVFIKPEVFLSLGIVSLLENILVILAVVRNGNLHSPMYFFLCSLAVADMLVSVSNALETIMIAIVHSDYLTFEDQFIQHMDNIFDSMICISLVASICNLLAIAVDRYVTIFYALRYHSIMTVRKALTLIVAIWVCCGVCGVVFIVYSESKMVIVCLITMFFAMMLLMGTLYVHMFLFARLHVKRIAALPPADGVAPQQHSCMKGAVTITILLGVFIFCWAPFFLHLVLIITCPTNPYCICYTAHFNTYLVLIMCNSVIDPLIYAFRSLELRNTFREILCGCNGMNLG

melanocortin-4 receptor = melanocortin-4 receptor (human, UniProt P32245 1-332)
Sequence of melanocortin-4 receptor (P32245 whole entry): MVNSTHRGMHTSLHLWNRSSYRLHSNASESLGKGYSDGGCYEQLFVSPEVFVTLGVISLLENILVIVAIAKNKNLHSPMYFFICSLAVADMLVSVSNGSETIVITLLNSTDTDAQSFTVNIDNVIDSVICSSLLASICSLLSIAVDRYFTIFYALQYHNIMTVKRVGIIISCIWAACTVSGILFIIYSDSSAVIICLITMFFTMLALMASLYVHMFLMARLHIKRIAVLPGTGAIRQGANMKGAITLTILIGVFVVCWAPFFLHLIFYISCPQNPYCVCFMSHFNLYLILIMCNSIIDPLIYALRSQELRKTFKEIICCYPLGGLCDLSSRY

Binder	cAMP Assay (EC-50) (melanocortin-5 receptor) [nM]	Ratios of EC50 values: MC1/4 (melanocortin-1 receptor)	cAMP Assay (EC-50) (melanocortin-1 receptor) [nM]	Ratios of EC50 values: MC3/4 (melanocortin-3 receptor)	cAMP Assay (EC-50) (melanocortin-3 receptor) [nM]	cAMP Assay (EC-50) (melanocortin-4 receptor) [nM]	Ratios of EC50 values: MC5/4 (melanocortin-5 receptor)
RCAHFRWC (cysteine pairing not given here; also: further groups not given here) [Peptide 1]	1600	–	–	–	–	–	–
Ac-RC[dA]N[dF]RWC-NH2 (disulfide 2-8; SMILES CC(=O)N[C@@H](CCCNC(=N)N)C(=O)N[C@H]1CSSC[C@@H](C(N)=O)NC(=O)[C@H](Cc2c[nH]c3ccccc23)NC(=O)[C@H](CCCNC(=N)N)NC(=O)[C@@H](Cc2ccccc2)NC(=O)[C@H](CC(N)=O)NC(=O)[C@@H](C)NC1=O) [Compound 9: Ac-Arg-cyclo[Cys-D-Ala-Asn-D-Phe-Arg-Trp-Cys]-NH2]	1490	90	248	30	81	3	530
Ac-RC[dI]H[dF]RWC-NH2 (disulfide 2-8) [Compound 2: Ac-Arg-cyclo[Cys-D-Ile-His-D-Phe-Arg-Trp-Cys]-NH2]	420	0.69	0.69	0.96	0.96	1	420
Ac-RC[dA]Y[dF]RWC-NH2 (disulfide 2-8; SMILES CC(=O)N[C@@H](CCCNC(=N)N)C(=O)N[C@H]1CSSC[C@@H](C(N)=O)NC(=O)[C@H](Cc2c[nH]c3ccccc23)NC(=O)[C@H](CCCNC(=N)N)NC(=O)[C@@H](Cc2ccccc2)NC(=O)[C@H](Cc2ccc(O)cc2)NC(=O)[C@@H](C)NC1=O) [Compound 11: Ac-Arg-cyclo[Cys-D-Ala-Tyr-D-Phe-Arg-Trp-Cys]-NH2]	–	6.67	301	> 22.2	> 1000	45.1	–
Ac-RC[dA]R[dF]RWC-NH2 (disulfide 2-8; SMILES CC(=O)N[C@@H](CCCNC(=N)N)C(=O)N[C@H]1CSSC[C@@H](C(N)=O)NC(=O)[C@H](Cc2c[nH]c3ccccc23)NC(=O)[C@H](CCCNC(=N)N)NC(=O)[C@@H](Cc2ccccc2)NC(=O)[C@H](CCCNC(=N)N)NC(=O)[C@@H](C)NC1=O) [Compound 10: Ac-Arg-cyclo[Cys-D-Ala-Arg-D-Phe-Arg-Trp-Cys]-NH2]	–	2.31	6.2	1.45	3.9	2.7	–
Ac-RC[dV]H[dF]RWC-NH2 (disulfide 2-8) [Compound 4: Ac-Arg-cyclo[Cys-D-Val-His-D-Phe-Arg-Trp-Cys]-NH2]	782	0.93	1.25	1.19	1.59	1.34	584
Ac-RC[dL]H[dF]RWC-NH2 (disulfide 2-8) [Compound 1: Ac-Arg-cyclo[Cys-D-Leu-His-D-Phe-Arg-Trp-Cys]-NH2]	91	0.68	0.47	1.13	0.79	0.7	130
Ac-RC[dA][His(1-Me)][dF]RWC-NH2 (disulfide 2-8) [Compound 6: Ac-Arg-cyclo[Cys-D-Ala-His(1-Me)-D-Phe-Arg-Trp-Cys]-NH2]	467	–	30.4	–	4.3	–	–
Ac-RC[dA]Q[dF]RWC-NH2 (disulfide 2-8; SMILES CC(=O)N[C@@H](CCCNC(=N)N)C(=O)N[C@H]1CSSC[C@@H](C(N)=O)NC(=O)[C@H](Cc2c[nH]c3ccccc23)NC(=O)[C@H](CCCNC(=N)N)NC(=O)[C@@H](Cc2ccccc2)NC(=O)[C@H](CCC(N)=O)NC(=O)[C@@H](C)NC1=O) [Compound 8: Ac-Arg-cyclo[Cys-D-Ala-Gln-D-Phe-Arg-Trp-Cys]-NH2]	255	40	71	5	8.6	1.6	155
Ac-R[hCys][dA][dF]RWC-NH2 (disulfide 2-7; SMILES CC(=O)N[C@@H](CCCNC(=N)N)C(=O)N[C@H]1CCSSC[C@@H](C(N)=O)NC(=O)[C@H](Cc2c[nH]c3ccccc23)NC(=O)[C@H](CCCNC(=N)N)NC(=O)[C@@H](Cc2ccccc2)NC(=O)[C@@H](C)NC1=O) [Compound 16: Ac-Arg-cyclo[hCys-D-Ala-D-Phe-Arg-Trp-Cys]-NH2]	> 10000	120	888	420	3160	7.5	> 1340
Ac-R[hCys]A[dF]RWC-NH2 (disulfide 2-7; SMILES CC(=O)N[C@@H](CCCNC(=N)N)C(=O)N[C@H]1CCSSC[C@@H](C(N)=O)NC(=O)[C@H](Cc2c[nH]c3ccccc23)NC(=O)[C@H](CCCNC(=N)N)NC(=O)[C@@H](Cc2ccccc2)NC(=O)[C@H](C)NC1=O) [Compound 15: Ac-Arg-cyclo[hCys-Ala-D-Phe-Arg-Trp-Cys]-NH2]	42	15	4	3.8	1	0.26	161
Ac-RC[dA]P[dF]RWC-NH2 (disulfide 2-8; SMILES CC(=O)N[C@@H](CCCNC(=N)N)C(=O)N[C@H]1CSSC[C@@H](C(N)=O)NC(=O)[C@H](Cc2c[nH]c3ccccc23)NC(=O)[C@H](CCCNC(=N)N)NC(=O)[C@@H](Cc2ccccc2)NC(=O)[C@@H]2CCCN2C(=O)[C@@H](C)NC1=O) [Compound 13: Ac-Arg-cyclo[Cys-D-Ala-Pro-D-Phe-Arg-Trp-Cys]-NH2]	707	5	280	> 200	> 10000	56	13
Ac-RC[dA]W[dF]RWC-NH2 (disulfide 2-8; SMILES CC(=O)N[C@@H](CCCNC(=N)N)C(=O)N[C@H]1CSSC[C@@H](C(N)=O)NC(=O)[C@H](Cc2c[nH]c3ccccc23)NC(=O)[C@H](CCCNC(=N)N)NC(=O)[C@@H](Cc2ccccc2)NC(=O)[C@H](Cc2c[nH]c3ccccc23)NC(=O)[C@@H](C)NC1=O) [Compound 7: Ac-Arg-cyclo[Cys-D-Ala-Trp-D-Phe-Arg-Trp-Cys]-NH2]	259	8	273	> 290	> 10000	34	7
Ac-R[hCys][dA][dF]RW[Pen]-NH2 (disulfide 2-7; SMILES CC(=O)N[C@@H](CCCNC(=N)N)C(=O)N[C@H]1CCSSC(C)(C)[C@@H](C(N)=O)NC(=O)[C@H](Cc2c[nH]c3ccccc23)NC(=O)[C@H](CCCNC(=N)N)NC(=O)[C@@H](Cc2ccccc2)NC(=O)[C@@H](C)NC1=O) [Compound 17: Ac-Arg-cyclo[hCys-D-Ala-D-Phe-Arg-Trp-Pen]-NH2]	2180	15	195	17	233	13.7	159
Ac-RC[dA]P[dPhe(4-F)]RWC-NH2 (disulfide 2-8; SMILES CC(=O)N[C@@H](CCCNC(=N)N)C(=O)N[C@H]1CSSC[C@@H](C(N)=O)NC(=O)[C@H](Cc2c[nH]c3ccccc23)NC(=O)[C@H](CCCNC(=N)N)NC(=O)[C@@H](Cc2ccc(F)cc2)NC(=O)[C@@H]2CCCN2C(=O)[C@@H](C)NC1=O) [Compound 14: Ac-Arg-cyclo[Cys-D-Ala-Pro-D-Phe(p-F)-Arg-Trp-Cys]-NH2]	283	7	169	> 400	> 10000	24	12
Ac-ECAH[dF]RWC-NH2 (disulfide 2-8; SMILES CC(=O)N[C@@H](CCC(=O)O)C(=O)N[C@H]1CSSC[C@@H](C(N)=O)NC(=O)[C@H](Cc2c[nH]c3ccccc23)NC(=O)[C@H](CCCNC(=N)N)NC(=O)[C@@H](Cc2ccccc2)NC(=O)[C@H](Cc2c[nH]cn2)NC(=O)[C@H](C)NC1=O) [Compound 22: Ac-Glu-cyclo[Cys-Ala-His-D-Phe-Arg-Trp-Cys]-NH2]	1280	> 3	1.7	> 20	9.9	< 0.5	> 2560
Ac-RC[dTle]H[dF]RWC-NH2 (disulfide 2-8) [Compound 3: Ac-Arg-cyclo[Cys-D-Tle-His-D-Phe-Arg-Trp-Cys]-NH2]	672	–	1	–	0.7	–	–
Ac-RC[dA][His(3-Me)][dF]RWC-NH2 (disulfide 2-8) [Compound 5: Ac-Arg-cyclo[Cys-D-Ala-His(3-Me)-D-Phe-Arg-Trp-Cys]-NH2]	1080	–	4.1	–	406	1.15	–
